17 sequences from the supplement of paper PMC9170038 can be followed below.

The data set concerns MS2 coat protein. The experiment in a line: apparent KD of MS2 coat protein; designed switch direction (-1 OFF switch, 1 ON switch): -1; higher = weaker reporter binding. The essentials: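 Designed RNA switches with common flanks were transcribed on Illumina chips by stalled E. coli RNA polymerase and titrated with SNAP-549-labelled MS2 coat protein, from 0.7 or 1.5 nM doubling to 3 µM, in Tris-HCl pH 7.5 buffer with KCl, MgCl2, BSA, DTT, tRNA and Tween-20. Steps lasted 0.8–1.5 h (lowest) to 10–20 min (highest). Titrations ran without input, with 200 uM small-molecule ligand, or with an oligonucleotide input. Normalised cluster fluorescence was curve-fitted, and apparent KD is the per-design median over clusters.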

[1] abbreviates: Eterna round: R95, input ligand: FMN 200 uM.
Setting [2] is: Eterna round: R95, input ligand: microRNA oligo, concentration not stated.
[3] abbreviates: Eterna round: R95, input ligand: none.
Setting [4] is: input ligand: microRNA oligo, concentration not stated.

As to “UAGAAGGUAGGAUAUACGAAUAAAUAGGGUAGUAAUAAUACACAUGAGGAUCACCCAUGUAGAAGGACCAAGAU [Mat - Exclusion 2 - Mod of my Tesla design - D31] (puzzle: Exclusion 2)”, the “apparent KD of MS2 coat protein” value was 44.2 nM under setting [1], 20.1 nM under setting [2] and 23 nM under setting [3].
Take “ACAUGAGGAUCACCCAUGUAAUCAUAAUGGCUGAUGUAGAGUCAGGAUAUGUGUGGCUUUCUAUCGCAGAAGGGACAAGACUGG [Deportation 34 - Jieux - Exclusion NG 3] (Eterna round: R96, puzzle: Exclusion NG 3)”: the “apparent KD of MS2 coat protein” value by setting is: (input ligand: FMN 200 uM) 26.3 nM; under setting [4], 26.4 nM; (input ligand: none) 30.7 nM.
“AAAAUAAGUGUGAGGAUAUGCUGGUCCUUGGAUCAGCAGAAGGCACAUGAGGAUCACCCAUGUAAUAUAUUUAU [Mat - Exclusion 4 - JL Mod - D62] (puzzle: Brourd's mod of Exclusion 4)”: the “apparent KD of MS2 coat protein” value under setting [2] was 77.3 nM.
In the case of “AAAAGGUCAGGAUAUGCGAGCGGCAGGGAGGCAGGUCGGUGGCAGAAGGGACAUGAGGAUCACCCAUGUUAAAA [Excls4-II] (puzzle: Exclusion 4)”, the “apparent KD of MS2 coat protein” value under setting [2] is 29.2 nM.
With “AUACCACGAGGAUAUCGUCUAUUCCACAUGAGGAUCACCCAUGUUAUCCAUGUUUCGUUUCGAGAAGGCGUGGGUU [JR_E5_Sub074] (puzzle: Exclusion 5)”, under setting [2], the “apparent KD of MS2 coat protein” value was determined as 45.9 nM.
Consider “CGGUACUGAGGAUAUACAUGAGGAUCACCCAUGUGUUCUAGCUAGCGUACUGGCAUUAGUAGAAGGCGGUGCUG [JL-ex3-3.18 Brourd mod] (puzzle: Exclusion 3)”, for which the “apparent KD of MS2 coat protein” value by setting is: under setting [1], 28.9 nM; under setting [2], 15.4 nM; under setting [3], 17.2 nM.
For “ACAGCGUGAGGAUAUACAUGAGGAUCACCCAUGUGUGGCAGGUUAUCCUGUCAUGAGUGUAGAAGGCACGCUGU [Exclusion 3 - Oddities v.7 ( A small slide from ms2 to fmn)] (puzzle: Exclusion 3)”, the “apparent KD of MS2 coat protein” value under setting [2] was 26.2 nM.
Turning to “GUGUAGUGAGGAUAUACAUGAGGAUCACCCAUGUGAAUAAGAUAGAAUAAGAUAAAGUGUAGAAGGUAUAGUGU [Excluse me!!! 17 - Jieux - Exclusion 3] (Eterna round: R96, puzzle: Exclusion 3)”, the “apparent KD of MS2 coat protein” value worked out at 60.8 nM (input ligand: FMN 200 uM), 41.8 nM under setting [4] and 58.4 nM (input ligand: none).
As for “UGUUGUUACGUAGGAUAUCCACCAACAGGUGGAAGGAUAUGUACGCAGAAGGUUCGCCAACAGGCGGAGAAGGACGUGUUAACA [pwkr exNG2 2xF7 2xFMN.28] (Eterna round: R96, puzzle: Exclusion NG 2)”, the “apparent KD of MS2 coat protein” value by setting is: (input ligand: FMN 200 uM) 675 nM; under setting [4], 1110 nM; (input ligand: none) 385 nM.
As to “AGUACUAACACGAAAGUGUUAGUACAAUAAGCUUGUGAAACAUGAGGAUCACCCAUGUCCUCAUAAGCUCGUCUUAU [salish99_TOv2_r3_001again] (puzzle: Sensor v3, turn-off variant 2)”, the “apparent KD of MS2 coat protein” value turned out to be 16.7 nM under setting [1], 648 nM under setting [2] and 15.9 nM under setting [3].
Turning to “ACAUUUGUAGAGGAUAUCAAGCCCAGGCUCCGUUGAGAAGGUUACACAUGAGGAUCACCCAUGUCCUCCUUACC [Eternabot (L1) Solution 4] (Eterna round: R97, puzzle: Exclusion 6)”, the “apparent KD of MS2 coat protein” value reads like this: (input ligand: FMN 200 uM) 168 nM; (input ligand: none) 162 nM.
With “GAUACCCAAGUCAGGAUAUCGGGAUACGAAAGUCACGAGAAGGGACAUGAGGAUCACCCAUGUAAAUAAAUAAA [Arege] (puzzle: Brourd's mod of Exclusion 4)”, the “apparent KD of MS2 coat protein” value runs as follows: under setting [1], 62.7 nM; under setting [2], 31.1 nM; under setting [3], 33.2 nM.
Take “UCUCUUGGGCAAGGAUAUCCUGCGCGGUUCCGGUUCGUGUCUGUCACAUGAGGAUCACCCAUGUGGGAGAAGGUGCCUGCGGUC [Design 77] (Eterna round: R96, puzzle: Exclusion NG 2)”: the “apparent KD of MS2 coat protein” value was 24.5 nM (input ligand: FMN 200 uM), 12 nM under setting [4] and 16.7 nM (input ligand: none).
Turning to “GGUUGGCGAGGAUAUACAUGAGGAUCACCCAUGUGAGAAAAUAGUGAGGAAAAGAAAAGUAGAAGGCGCUGACG [Mat - Exclusion 3 - Mod of Salish D54] (puzzle: Exclusion 3)”, the “apparent KD of MS2 coat protein” value stood at 320 nM under setting [1], 38.8 nM under setting [2] and 41.5 nM under setting [3].
Consider “UACAUGAGGAUCACCCAUGUUUUGUCGUGUAUGGUAUUUAUCUAGGAUAUCAUUGUAUUUAGUUAUGAGAAGGAGAAUAUUAAU [JMF's solution 83] (Eterna round: R96, puzzle: Exclusion NG 3)”, for which the “apparent KD of MS2 coat protein” value is, setting by setting: (input ligand: FMN 200 uM) 30.2 nM; under setting [4], 22.9 nM; (input ligand: none) 33 nM.
With “AAGGGCUGAGGAUAUGCGCGGGCAAGAUCCUCAAUCCCAAAACAUGAGGAUCACCCAUGUAGAAGGCAGAAAUA [Atedonesle] (puzzle: Exclusion 2)”, the “apparent KD of MS2 coat protein” value under setting [2] turned out to be 28.3 nM.
Take “CAGUACUGAGGAUAUACAUGAGGAUCACCCAUGUAUCCUAGCUAGGAAACUAGCAAAUGUAGAAGGCAGUACUG [Ex3: 818] (Eterna round: R96, puzzle: Exclusion 3)”: the “apparent KD of MS2 coat protein” value reads like this: (input ligand: FMN 200 uM) 747 nM; under setting [4], 53.8 nM; (input ligand: none) 61.2 nM.
